T1: XPGn1 D812A (Homo sapiens, UniProt P28715 1-112+=GT+750-990, D812A;internal_change)
T1 sequence: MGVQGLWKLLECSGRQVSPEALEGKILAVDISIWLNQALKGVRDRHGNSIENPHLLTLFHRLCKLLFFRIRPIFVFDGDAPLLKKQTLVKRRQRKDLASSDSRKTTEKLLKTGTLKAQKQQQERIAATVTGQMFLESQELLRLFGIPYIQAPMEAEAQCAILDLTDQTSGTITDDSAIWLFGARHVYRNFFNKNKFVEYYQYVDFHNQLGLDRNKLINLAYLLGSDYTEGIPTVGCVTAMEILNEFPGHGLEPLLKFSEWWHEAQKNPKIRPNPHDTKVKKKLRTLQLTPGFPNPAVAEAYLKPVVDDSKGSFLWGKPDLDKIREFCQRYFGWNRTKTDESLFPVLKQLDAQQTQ

T2: XPGn3 K913A (Homo sapiens, UniProt P28715 2-112+=GT+750-990, K913A;internal_change)
T2 sequence: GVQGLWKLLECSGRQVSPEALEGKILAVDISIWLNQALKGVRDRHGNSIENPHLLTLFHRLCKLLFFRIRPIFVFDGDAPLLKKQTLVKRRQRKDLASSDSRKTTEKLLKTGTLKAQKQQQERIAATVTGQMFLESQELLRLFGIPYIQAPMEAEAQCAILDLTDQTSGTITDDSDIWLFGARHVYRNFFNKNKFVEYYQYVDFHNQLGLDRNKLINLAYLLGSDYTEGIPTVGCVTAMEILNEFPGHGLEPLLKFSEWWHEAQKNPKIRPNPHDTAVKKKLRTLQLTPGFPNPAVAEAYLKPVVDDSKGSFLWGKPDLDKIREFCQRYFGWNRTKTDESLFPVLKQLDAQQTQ

T3: XPGn3 K917E (Homo sapiens, UniProt P28715 2-112+=GT+750-990, K917E;internal_change)
T3 sequence: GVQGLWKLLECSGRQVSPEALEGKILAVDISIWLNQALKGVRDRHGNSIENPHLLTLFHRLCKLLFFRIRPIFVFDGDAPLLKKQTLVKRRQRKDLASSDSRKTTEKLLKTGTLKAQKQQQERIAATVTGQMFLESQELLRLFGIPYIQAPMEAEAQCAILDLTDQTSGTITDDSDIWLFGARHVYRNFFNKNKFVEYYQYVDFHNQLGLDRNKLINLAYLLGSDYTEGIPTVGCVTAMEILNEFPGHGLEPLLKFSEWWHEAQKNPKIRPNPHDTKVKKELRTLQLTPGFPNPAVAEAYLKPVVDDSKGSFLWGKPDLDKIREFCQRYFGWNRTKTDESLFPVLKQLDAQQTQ

T4: XPGn3 K916A (Homo sapiens, UniProt P28715 2-112+=GT+750-990, K916A;internal_change)
T4 sequence: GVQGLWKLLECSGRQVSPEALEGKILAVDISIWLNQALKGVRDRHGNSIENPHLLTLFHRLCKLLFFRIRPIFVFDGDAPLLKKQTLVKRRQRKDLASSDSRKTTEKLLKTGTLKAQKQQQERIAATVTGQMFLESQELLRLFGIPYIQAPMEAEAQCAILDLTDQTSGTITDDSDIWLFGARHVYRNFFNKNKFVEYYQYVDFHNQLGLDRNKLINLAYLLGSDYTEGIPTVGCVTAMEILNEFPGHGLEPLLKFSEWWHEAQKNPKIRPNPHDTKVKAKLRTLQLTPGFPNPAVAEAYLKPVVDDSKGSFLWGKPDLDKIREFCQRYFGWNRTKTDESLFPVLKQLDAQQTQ

T5: XPGn3 D812A (Homo sapiens, UniProt P28715 2-112+=GT+750-990, D812A;internal_change)
T5 sequence: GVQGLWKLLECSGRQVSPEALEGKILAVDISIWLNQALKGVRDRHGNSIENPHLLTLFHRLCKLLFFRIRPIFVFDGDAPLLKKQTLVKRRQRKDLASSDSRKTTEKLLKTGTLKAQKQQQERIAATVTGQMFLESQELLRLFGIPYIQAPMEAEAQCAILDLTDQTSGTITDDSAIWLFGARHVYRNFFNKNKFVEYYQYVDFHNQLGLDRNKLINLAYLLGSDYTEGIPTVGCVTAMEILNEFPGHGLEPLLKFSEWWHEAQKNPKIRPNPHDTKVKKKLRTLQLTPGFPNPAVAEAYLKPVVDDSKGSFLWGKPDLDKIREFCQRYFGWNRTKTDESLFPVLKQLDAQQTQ

T6: XPGn3 K972E (Homo sapiens, UniProt P28715 2-112+=GT+750-990, K972E;internal_change)
T6 sequence: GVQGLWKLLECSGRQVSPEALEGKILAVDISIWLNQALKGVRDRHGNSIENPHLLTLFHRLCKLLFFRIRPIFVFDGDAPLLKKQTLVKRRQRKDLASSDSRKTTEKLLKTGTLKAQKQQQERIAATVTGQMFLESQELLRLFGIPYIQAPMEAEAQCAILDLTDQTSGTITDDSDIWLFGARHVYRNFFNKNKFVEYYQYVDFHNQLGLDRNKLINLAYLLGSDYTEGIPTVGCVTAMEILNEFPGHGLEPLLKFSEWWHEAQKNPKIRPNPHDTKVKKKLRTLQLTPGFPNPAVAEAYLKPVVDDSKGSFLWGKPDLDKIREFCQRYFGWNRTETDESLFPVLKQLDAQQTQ

T7: XPGn3 K828E (Homo sapiens, UniProt P28715 2-112+=GT+750-990, K828E;internal_change)
T7 sequence: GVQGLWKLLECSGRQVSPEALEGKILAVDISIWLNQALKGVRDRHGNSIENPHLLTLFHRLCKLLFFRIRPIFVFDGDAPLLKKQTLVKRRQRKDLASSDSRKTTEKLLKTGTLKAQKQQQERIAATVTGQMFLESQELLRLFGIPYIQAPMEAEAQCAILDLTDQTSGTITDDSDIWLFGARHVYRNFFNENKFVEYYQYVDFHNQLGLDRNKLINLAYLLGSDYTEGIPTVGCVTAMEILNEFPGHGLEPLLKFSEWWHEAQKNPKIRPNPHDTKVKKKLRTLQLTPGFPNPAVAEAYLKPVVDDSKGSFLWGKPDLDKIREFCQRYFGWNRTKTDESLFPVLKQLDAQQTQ

T8: XPGn3 R823A (Homo sapiens, UniProt P28715 2-112+=GT+750-990, R823A;internal_change)
T8 sequence: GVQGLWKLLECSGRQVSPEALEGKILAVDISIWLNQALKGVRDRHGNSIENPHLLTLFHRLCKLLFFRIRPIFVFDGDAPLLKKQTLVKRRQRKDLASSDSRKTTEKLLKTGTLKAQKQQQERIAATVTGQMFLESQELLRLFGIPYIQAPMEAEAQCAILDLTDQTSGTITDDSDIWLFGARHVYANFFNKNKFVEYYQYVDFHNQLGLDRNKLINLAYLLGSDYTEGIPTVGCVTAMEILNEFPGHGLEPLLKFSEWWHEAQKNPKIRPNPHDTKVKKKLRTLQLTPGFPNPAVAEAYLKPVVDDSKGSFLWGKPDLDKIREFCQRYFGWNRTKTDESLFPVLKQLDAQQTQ


Assays:
XPGn1 D812A = target: T1, XPGn1 D812A; experiment: crystal structure; C1, space group I422, one complex per ASU; EMSA: 2.5 uM DNA, 1-8 uM protein, buffer H (composition not in material) + 15% glycerol, 25 C, 30 min, 7% native PAGE; crystals: complex in 20 mM Tris pH 7.5, 100 mM KCl, grown in 5% PEG 3350, 50 mM sodium citrate pH 4.0, 22 C; settings: protein: recombinant; tags: N-terminal His-3C cleaved, leaves Gly-Pro-His before Met1; fork: 10 bp duplex, 1 nt 5' arm (strand 1), 1 nt 3' arm (strand 2)
XPGn3 K913A = target: T2, XPGn3 K913A; experiment: EMSA; minimal or null effect; EMSA: 2.5 uM DNA, 1-8 uM protein, buffer H (composition not in material) + 15% glycerol, 25 C, 30 min, 7% native PAGE; crystals: complex in 20 mM Tris pH 7.5, 100 mM KCl, grown in 5% PEG 3350, 50 mM sodium citrate pH 4.0, 22 C; settings: protein: recombinant; tags: N-terminal His-TEV cleaved; fork: 12 bp duplex, 4 nt 5' arm (strand 1), 5 nt 3' arm (strand 2)
XPGn3 K917E = target: T3, XPGn3 K917E; experiment: as above; settings: protein: recombinant; tags: N-terminal His-TEV cleaved; fork: 12 bp duplex, 4 nt 5' arm (strand 1), 5 nt 3' arm (strand 2)
XPGn3 K916A = target: T4, XPGn3 K916A; experiment: as above; settings: protein: recombinant; tags: N-terminal His-TEV cleaved; fork: 12 bp duplex, 4 nt 5' arm (strand 1), 5 nt 3' arm (strand 2)
XPGn3 D812A = target: T5, XPGn3 D812A; experiment: EMSA; no influence on binding; EMSA: 2.5 uM DNA, 1-8 uM protein, buffer H (composition not in material) + 15% glycerol, 25 C, 30 min, 7% native PAGE; crystals: complex in 20 mM Tris pH 7.5, 100 mM KCl, grown in 5% PEG 3350, 50 mM sodium citrate pH 4.0, 22 C; settings: protein: recombinant; tags: N-terminal His-TEV cleaved; fork: 12 bp duplex, 4 nt 5' arm (strand 1), 5 nt 3' arm (strand 2)
XPGn3 K972E = target: T6, XPGn3 K972E; experiment: EMSA; only cleavage mildly lowered; EMSA: 2.5 uM DNA, 1-8 uM protein, buffer H (composition not in material) + 15% glycerol, 25 C, 30 min, 7% native PAGE; crystals: complex in 20 mM Tris pH 7.5, 100 mM KCl, grown in 5% PEG 3350, 50 mM sodium citrate pH 4.0, 22 C; settings: protein: recombinant; tags: N-terminal His-TEV cleaved; fork: 12 bp duplex, 4 nt 5' arm (strand 1), 5 nt 3' arm (strand 2)
XPGn3 K828E = target: T7, XPGn3 K828E; experiment: as above; settings: protein: recombinant; tags: N-terminal His-TEV cleaved; fork: 12 bp duplex, 4 nt 5' arm (strand 1), 5 nt 3' arm (strand 2)
XPGn3 R823A = target: T8, XPGn3 R823A; experiment: EMSA; value from '~10% reduction'; EMSA: 2.5 uM DNA, 1-8 uM protein, buffer H (composition not in material) + 15% glycerol, 25 C, 30 min, 7% native PAGE; crystals: complex in 20 mM Tris pH 7.5, 100 mM KCl, grown in 5% PEG 3350, 50 mM sodium citrate pH 4.0, 22 C; settings: protein: recombinant; tags: N-terminal His-TEV cleaved; fork: 12 bp duplex, 4 nt 5' arm (strand 1), 5 nt 3' arm (strand 2)

Binder | binding result (XPGn1 D812A) | binding result (XPGn3 K913A) | binding result (XPGn3 K917E) | binding result (XPGn3 K916A) | binding result (XPGn3 D812A) | binding result (XPGn3 K972E) | binding result (XPGn3 K828E) | binding signal (XPGn3 R823A)
DNA-1 splayed-arm (dsDNA) DNA 1: TTGCAGAGTTC DNA 2: GAACTCTGCAG | binds |  |  |  |  |  |  | 
DNA-2 splayed-arm (dsDNA) DNA 1: TACTTGCAGAGTTCGC DNA 2: GCGAACTCTGCAGAGCA |  | binds | binds | binds | binds | binds | binds | ~90 % of wild-type binding

From publication PMC7515719, “The crystal structure of human XPG, the xeroderma pigmentosum group G endonuclease, provides insight into nucleotide excision DNA repair”
